Reference: patent publication US20050244819

Tested on: beta-Gal^PR, engineered E. coli beta-galactosidase with the HIV p6/PR cleavage site decapeptide inse [β-galactosidase: P00722]

TF-PR^D25N, HIV protease precursor with the D25N mutation at the catalytic residue Asp25
β-galactosidase activity: 0.178 µmol/min/mg
